Laboratory results taken from publication PMC6992733, “Analysis of the polycystin complex (PCC) in human urinary exosome–like vesicles (ELVs)” (Scientific Reports, 2020).
Where “and” joins values, the source holds several entries; their conditions need not be identical. Identical values can stand only once.

Tests used:
[1] = biological target: the molecule itself; assay: native gel or EMSA; purified urinary ELVs with 0.2-0.8% SDS, non reducing, incubated on ice 20 min without heating; native gel; western blot
[2] = biological target: the molecule itself; assay: SDS-PAGE and western blot; human RCTE cells, PC2 bands on SDS-PAGE western blot read as monomer, dimer and tetramer (Supplemental Fig. 2)

Row | Protein | stoichiometry N [1] | stoichiometry N [2]
1 | polycystin-2 (PC2) of urinary ELVs (natural protein, human (endogenous in urinary ELVs), UniProt Q13563 1-968, looked up, mature post-Golgi N-linked glycosylation (PNGase F sensitive, Endo H resistant), polycystin-2, human, product of PKD2, printed length 968 aa; about 10-13% is cleaved in the C-terminal tail N-terminal to the coiled-coil domain (833..872 aa); also called ELV PC2; source: endogenous, human urinary exosome-like vesicles (ELVs), detergent-solubilised) MVNSSRVQPQQPGDAKRPPAPRAPDPGRLMAGCAAVGASLAAPGGLCEQRGLEIEMQRIRQAAARDPPAGAAASPSPPLSSCSRQAWSRDNPGFEAEEEEEEVEGEEGGMVVEMDVEWRPGSRRSAASSAVSSVGARSRGLGGYHGAGHPSGRRRRREDQGPPCPSPVGGGDPLHRHLPLEGQPPRVAWAERLVRGLRGLWGTRLMEESSTNREKYLKSVLRELVTYLLFLIVLCILTYGMMSSNVYYYTRMMSQLFLDTPVSKTEKTNFKTLSSMEDFWKFTEGSLLDGLYWKMQPSNQTEADNRSFIFYENLLLGVPRIRQLRVRNGSCSIPQDLRDEIKECYDVYSVSSEDRAPFGPRNGTAWIYTSEKDLNGSSHWGIIATYSGAGYYLDLSRTREETAAQVASLKKNVWLDRGTRATFIDFSVYNANINLFCVVRLLVEFPATGGVIPSWQFQPLKLIRYVTTFDFFLAACEIIFCFFIFYYVVEEILEIRIHKLHYFRSFWNCLDVVIVVLSVVAIGINIYRTSNVEVLLQFLEDQNTFPNFEHLAYWQIQFNNIAAVTVFFVWIKLFKFINFNRTMSQLSTTMSRCAKDLFGFAIMFFIIFLAYAQLAYLVFGTQVDDFSTFQECIFTQFRIILGDINFAEIEEANRVLGPIYFTTFVFFMFFILLNMFLAIINDTYSEVKSDLAQQKAEMELSDLIRKGYHKALVKLKLKKNTVDDISESLRQGGGKLNFDELRQDLKGKGHTDAEIEAIFTKYDQDGDQELTEHEHQQMRDDLEKEREDLDLDHSSLPRPMSSRSFPRSLDDSEEDDDEDSGHSSRRRGSISSGVSYEEFQVLVRRVDRMEHSIGSIVSKIDAVIVKLEIMERAKLKRREVLGRLLDGVAEDERLGRDSEIHREQMERLVREELERWESDDAASQISHGLGTPVGLNGQPRPRSSRPSSSQSTEGMEGAGGNGSSNVHV | 2 | 
2 | polycystin-2 (PC2) of human renal cortical tubular epithelial (RCTE) cells (natural protein, human (endogenous in RCTE cells), UniProt Q13563 1-968, looked up, polycystin-2, human, product of PKD2, printed length 968 aa; also called PC2 from cells; source: endogenous, human RCTE cells) MVNSSRVQPQQPGDAKRPPAPRAPDPGRLMAGCAAVGASLAAPGGLCEQRGLEIEMQRIRQAAARDPPAGAAASPSPPLSSCSRQAWSRDNPGFEAEEEEEEVEGEEGGMVVEMDVEWRPGSRRSAASSAVSSVGARSRGLGGYHGAGHPSGRRRRREDQGPPCPSPVGGGDPLHRHLPLEGQPPRVAWAERLVRGLRGLWGTRLMEESSTNREKYLKSVLRELVTYLLFLIVLCILTYGMMSSNVYYYTRMMSQLFLDTPVSKTEKTNFKTLSSMEDFWKFTEGSLLDGLYWKMQPSNQTEADNRSFIFYENLLLGVPRIRQLRVRNGSCSIPQDLRDEIKECYDVYSVSSEDRAPFGPRNGTAWIYTSEKDLNGSSHWGIIATYSGAGYYLDLSRTREETAAQVASLKKNVWLDRGTRATFIDFSVYNANINLFCVVRLLVEFPATGGVIPSWQFQPLKLIRYVTTFDFFLAACEIIFCFFIFYYVVEEILEIRIHKLHYFRSFWNCLDVVIVVLSVVAIGINIYRTSNVEVLLQFLEDQNTFPNFEHLAYWQIQFNNIAAVTVFFVWIKLFKFINFNRTMSQLSTTMSRCAKDLFGFAIMFFIIFLAYAQLAYLVFGTQVDDFSTFQECIFTQFRIILGDINFAEIEEANRVLGPIYFTTFVFFMFFILLNMFLAIINDTYSEVKSDLAQQKAEMELSDLIRKGYHKALVKLKLKKNTVDDISESLRQGGGKLNFDELRQDLKGKGHTDAEIEAIFTKYDQDGDQELTEHEHQQMRDDLEKEREDLDLDHSSLPRPMSSRSFPRSLDDSEEDDDEDSGHSSRRRGSISSGVSYEEFQVLVRRVDRMEHSIGSIVSKIDAVIVKLEIMERAKLKRREVLGRLLDGVAEDERLGRDSEIHREQMERLVREELERWESDDAASQISHGLGTPVGLNGQPRPRSSRPSSSQSTEGMEGAGGNGSSNVHV |  | 2 and 4
